Data as given in patent US7422745 (IXSYS, dated 2008).
Numbering of substitutions follows the chain as printed.

B1: LM609 grafted antibody Fab (parent molecule) (Fab, V domains shown)
VH: QVQLVESGGGVVQPGRSLRLSCAASGFTFSSYDMSWVRQAPGKGLEWVAKVSSGGGSTYYLDTVQGRFTISRDNSKNTLYLQMNSLRAEDTAVYYCARHNYGSFAYWGQGTTVTVSS
VL: EIVLTQSPATLSLSPGERATLSCQASQSISNHLHWYQQRPGQAPRLLIRYRSQSISGIPARFSGSGSGTDFTLTISSLEPEDFAVYYCQQSGSWPHTFGGGTKVEIK
notes: Fab expressed from M13 phage vector in E. coli, purified on protein A; also called LM609 grafted Fab; wild type
B2: LM609 grafted antibody variant S102 (Fab, V domains shown)
VH: B1 VH with Y106S
VL: B1 VL
notes: Fab; also called clone S102
B3: LM609 grafted antibody combinatorial clone C59 (Fab, V domains shown)
VH: B1 VH with L61P, Y106D
VL: B1 VL with H32F
notes: Fab

Experiments:
[1] = target: integrin αvβ3 on cells (M21 human melanoma cells; human umbilical vein endothelial cells) (human) (UniProt P06756); assay: cell-based or functional assay
Sequence of integrin αvβ3 on cells (M21 human melanoma cells; human umbilical vein endothelial cells) (human) (P06756 31-1048, chain 1 of 2): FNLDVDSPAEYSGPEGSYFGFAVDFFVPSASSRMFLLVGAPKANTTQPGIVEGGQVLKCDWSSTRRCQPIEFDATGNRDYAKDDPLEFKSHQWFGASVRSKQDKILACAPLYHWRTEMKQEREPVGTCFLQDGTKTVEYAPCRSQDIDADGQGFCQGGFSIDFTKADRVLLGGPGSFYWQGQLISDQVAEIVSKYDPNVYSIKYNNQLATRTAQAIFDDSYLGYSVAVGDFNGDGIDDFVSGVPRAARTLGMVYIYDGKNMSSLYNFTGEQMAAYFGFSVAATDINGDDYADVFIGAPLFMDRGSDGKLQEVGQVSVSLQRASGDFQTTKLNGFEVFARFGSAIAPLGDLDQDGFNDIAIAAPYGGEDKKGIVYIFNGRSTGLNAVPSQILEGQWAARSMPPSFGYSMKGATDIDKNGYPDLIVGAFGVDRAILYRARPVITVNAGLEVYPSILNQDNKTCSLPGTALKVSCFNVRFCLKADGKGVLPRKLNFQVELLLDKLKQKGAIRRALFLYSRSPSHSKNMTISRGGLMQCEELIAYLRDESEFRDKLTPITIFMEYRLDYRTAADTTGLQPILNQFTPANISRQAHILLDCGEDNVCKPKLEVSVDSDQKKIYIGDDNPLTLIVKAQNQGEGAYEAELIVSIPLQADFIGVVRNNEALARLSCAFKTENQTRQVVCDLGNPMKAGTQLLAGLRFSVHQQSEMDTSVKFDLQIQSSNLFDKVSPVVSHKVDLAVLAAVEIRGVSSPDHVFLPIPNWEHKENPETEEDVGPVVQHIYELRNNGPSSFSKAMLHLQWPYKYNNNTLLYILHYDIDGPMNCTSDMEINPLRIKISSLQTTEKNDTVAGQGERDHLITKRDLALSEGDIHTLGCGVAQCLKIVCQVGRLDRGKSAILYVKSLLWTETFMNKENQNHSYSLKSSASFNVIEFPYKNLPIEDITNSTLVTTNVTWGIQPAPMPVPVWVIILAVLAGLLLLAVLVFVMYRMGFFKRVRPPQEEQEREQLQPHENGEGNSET
Sequence of integrin αvβ3 on cells (M21 human melanoma cells; human umbilical vein endothelial cells) (human) (P05106 27-788, chain 2 of 2, further chain): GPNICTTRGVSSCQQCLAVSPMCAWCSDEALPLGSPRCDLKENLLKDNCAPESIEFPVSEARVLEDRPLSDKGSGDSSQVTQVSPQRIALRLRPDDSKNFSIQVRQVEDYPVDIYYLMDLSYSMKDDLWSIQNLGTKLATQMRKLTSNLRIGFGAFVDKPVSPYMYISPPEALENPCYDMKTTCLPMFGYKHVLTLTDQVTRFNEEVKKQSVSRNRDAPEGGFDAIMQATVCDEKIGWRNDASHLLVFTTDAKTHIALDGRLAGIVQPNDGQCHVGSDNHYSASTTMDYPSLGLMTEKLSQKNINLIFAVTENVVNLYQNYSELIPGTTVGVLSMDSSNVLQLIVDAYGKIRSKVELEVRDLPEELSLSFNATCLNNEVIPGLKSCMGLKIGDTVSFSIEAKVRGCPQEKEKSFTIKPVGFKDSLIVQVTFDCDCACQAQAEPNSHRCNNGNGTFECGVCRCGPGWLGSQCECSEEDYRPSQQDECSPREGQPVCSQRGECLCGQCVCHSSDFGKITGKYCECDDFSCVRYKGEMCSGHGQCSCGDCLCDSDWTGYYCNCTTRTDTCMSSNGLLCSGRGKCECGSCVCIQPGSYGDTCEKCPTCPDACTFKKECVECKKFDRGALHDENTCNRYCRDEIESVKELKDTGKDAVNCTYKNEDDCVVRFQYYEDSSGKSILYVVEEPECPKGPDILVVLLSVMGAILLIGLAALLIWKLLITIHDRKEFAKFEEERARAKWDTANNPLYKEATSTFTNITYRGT

[2] = target: T1, integrin αvβ3 (human vitronectin receptor), purified from human placenta (human, UniProt P06756 31-1048; P05106 27-788); assay: ELISA titration of bacterial cell lysate containing Fab on immobilized αvβ3, detection with goat anti-human kappa-alkaline phosphatase
T1 construct: mature; coated on ELISA plates or immobilized on a BIAcore chip; Biotinylated in capture lift and capture ELISA screens; also called avb3; αvβ3 receptor
T1 sequence (P06756 31-1048, form in doubt, chain 1 of 2): as the sequence (P06756 31-1048, chain 1 of 2) above
T1 sequence (P05106 27-788, form in doubt, chain 2 of 2): as the sequence (P05106 27-788, chain 2 of 2, further chain) above

[3] = target: T1, integrin αvβ3 (human vitronectin …); assay: ELISA on immobilized αvβ3 incubated with 0.1 µg/ml biotinylated fibrinogen (the blocked ligand) and various concentrations of Fab for 3 h at 37 °C; bound fibrinogen detected with NeutrAvidin-alkaline phosphatase

Row | Molecule | EC50 (read off the curve) [2] [µg/mL] | also measured
1 | monoclonal antibody LM609 (murine IgG) | – | decrease in vitronectin-induced migration of human umbilical vein endothelial cells (transwell), antibody at 5 µg/ml [1]: 60%
2 | B1 | ~0.4 | –
3 | B2 | ~0.1 | –
4 | B3 | – | IC50 (read off the curve) [3]: ~0.1 µg/mL
